{"source": "patent US10457718B2", "about": "“Compounds for the treatment of cancer” (Rheinisch-Westfaelische Technische Hochschule Aachen, priority 2015, dated 2019)", "molecules": {"B1": {"name": "213_vWA: isolated recombinant polypeptide comprising only the vWA domain of ITIH5, 213 amino acids (protein)", "chain": "GYFVHYFAPKDLPPLPKNVVFVLDSSASMVGTKLRQTKDALFTILHDLRPQDRFSIIGFSNRIKVWKDHLISVTPDSIRDGKVYIHHMSPTGGTDINGALQRAIRLLNKYVAHSGIGDRSVSLIVFLTDGKPTVGETHTLKILNNTREAARGQVCIFTIGIGNDVDFRLLEKLSLENCGLTRRVHEEEDAGSQLIGFYDEIRTPLLSDIRIDY", "modifications": "“vWA” domain of the inter-alpha-trypsin inhibitor heavy chain"}, "B2": {"name": "1-162_VIT: isolated recombinant polypeptide comprising only the VIT domain of ITIH5, amino acid 1 to 162 (protein)", "chain": "MLLLLGLCLGLSLCVGSQEEAQSWGHSSEQDGLRVPRQVRLLQRLKTKPLMTEFSVKSTIISRYAFTTVSCRMLNRASEDQDIEFQMQIPAAAFITNFTMLIGDKVYQGEITEREKKSGDRVKEKRNKTTEENGEKGTEIFRASAVIPSKDKAAFFLSYEE", "modifications": "VIT- domain of the inter-alpha-trypsin inhibitor heavy chain"}, "B3": {"name": "1-681_ITIH5: recombinant isolated polypeptide, amino acids 1-681 of the full-length ITIH5 protein (942 amino acids) (protein)", "chain": "MLLLLGLCLGLSLCVGSQEEAQSWGHSSEQDGLRVPRQVRLLQRLKTKPLMTEFSVKSTIISRYAFTTVSCRMLNRASEDQDIEFQMQIPAAAFITNFTMLIGDKVYQGEITEREKKSGDRVKEKRNKTTEENGEKGTEIFRASAVIPSKDKAAFFLSYEELLQRRLGKYEHSISVRPQQLSGRLSVDVNILESAGIASLEVLPLHNSRQRGSGRGEDDSGPPPSTVINQNETFANIIFKPTVVQQARIAQNGILGDFIIRYDVNREQSIGDIQVLNGYFVHYFAPKDLPPLPKNVVFVLDSSASMVGTKLRQTKDALFTILHDLRPQDRFSIIGFSNRIKVWKDHLISVTPDSIRDGKVYIHHMSPTGGTDINGALQRAIRLLNKYVAHSGIGDRSVSLIVFLTDGKPTVGETHTLKILNNTREAARGQVCIFTIGIGNDVDFRLLEKLSLENCGLTRRVHEEEDAGSQLIGFYDEIRTPLLSDIRIDYPPSSVVQATKTLFPNYFNGSEIIIAGKLVDRKLDHLHVEVTASNSKKFIILKTDVPVRPQKAGKDVTGSPRPGGDGEGDPNHIERLWSYLTTKELLSSWLQSDDEPEKERLRQRAQALAVSYRFLTPFTSMKLRGPVPRMDGLEEAHGMSAAMGPEPVVQSVRGAGTQPGPLLKKPYQPRIKISKTSVDGD", "modifications": "polypeptide 1-681_ ITIH5"}}, "key": {"[1]": {"system": "MDA-MB231 breast cancer cells", "assay": "short-term cell number WST assay / XTT proliferation assay of small peptides", "format": "cell-based, human", "settings": "300 ng/ml", "from_the_text": "FIG. 6 presents diagrams showing the tumor suppressive impact of small peptides derived from ITIH5 on aggressive MDA-MB231 breast cancer cells. Growth inhibition mediated by chemically synthesized ITIH5-derived peptides using a short-term cell number WST assay.\nThese small protein fragments can be further optimized (stabilization, modification) to obtain suitable candidates for novel anti-tumor drugs. Use of biological drugs in targeted cancer therapy is a strongly growing area in cancer care."}, "[2]": {"system": "MDA-MB231 breast cancer cells", "assay": "short-term cell number assay (CASY cell counter)", "format": "cell-based, human", "settings": "for inhibition of tumor cell growth: dose dependent, maximal effect", "experimental": "(§1) Various functional readout systems were available to determine the tumor suppressive impact of 1-681_ITIH5 treatment in vitro: A) Cell number assay: Numbers of living cells were quantified after four days of culturing using the CASY cell counter and analyzer (Roche Diagnostics, Mannheim, Germany). B) XTT proliferation assay: the cell proliferation KIT (XTT) was used according to the manufacturer's recommendations (Roche). C) Colony formation assay: 1×10^3 cells were seeded into six-well plates. After 14 days of culturing grown colonies were fixed with 3.5% formaldehyde/80% methanol and stained with 0.1% crystal violet. D) Wound healing assay: a confluent monolayer was scratched with a pipette tip. Afterwards cell migration within the wounded area was analyzed by using a light microscope over three days.\nas §1, with “Highly purified peptides were used for functional in vitro validation. Various” for “Various”, “ITIH5 protein subfragments” for “1-681_ITIH5 treatment”, “B)” for “B) XTT proliferation assay: the cell proliferation KIT (XTT) was used according to the manufacturer's recommendations (Roche). C)”, “violet. C) In order to ensure specificity of observed effects of the ITIH5 subfragments a LDH Cytotoxicity Detection Kit (Roche) was performed according to the manufacturer's recommendations.” for “violet.”"}, "[3]": {"system": "MDA-MB231 breast cancer cells", "assay": "LDH Cytotoxicity Detection assay", "format": "cell-based, human", "settings": "after 72 h vs controls", "experimental": "(§2) In order to ensure specificity of observed effects of 1-681_ITIH5, a LDH Cytotoxicity Detection assay (Roche) was performed according to the manufacturer's recommendations. Furthermore MDA-MB231 single cell clones were generated which stably express ITIH5 protein under a strong CMV promoter. These endogenous ITIH5-positive clones are optimal control cells, i.e. those ITIH5-positive cells should not show further sensitivity against 1-681_ITIH5 in growth inhibitory experiments.\nHighly purified peptides were used for functional in vitro validation. Various functional readout systems were available to determine the tumor suppressive impact of ITIH5 protein subfragments in vitro: A) Cell number assay: Numbers of living cells were quantified after four days of culturing using the CASY cell counter and analyzer (Roche Diagnostics, Mannheim, Germany). B) Colony formation assay: 1×10^3 cells were seeded into six-well plates. After 14 days of culturing grown colonies were fixed with 3.5% formaldehyde/80% methanol and stained with 0.1% crystal violet. C) In order to ensure specificity of observed effects of the ITIH5 subfragments a LDH Cytotoxicity Detection Kit (Roche) was performed according to the manufacturer's recommendations. […] Afterwards cell migration within the wounded area was analyzed by using a light microscope over three days."}, "[4]": {"system": "MDA-MB231 breast cancer cells", "assay": "scratch wound healing assay (cell migration)", "format": "cell-based, human", "settings": "over 3 days", "experimental": "as §1\nHighly purified peptides were used for functional in vitro validation. Various functional readout systems were available to determine the tumor suppressive impact of ITIH5 protein subfragments in vitro: A) Cell number assay: Numbers of living cells were quantified after four days of culturing using the CASY cell counter and analyzer (Roche Diagnostics, Mannheim, Germany). B) Colony formation assay: 1×10^3 cells were seeded into six-well plates. […] Afterwards cell migration within the wounded area was analyzed by using a light microscope over three days."}, "[5]": {"system": "A549 lung cancer cells", "assay": "short-term cell number assay (CASY cell counter)", "format": "cell-based, human", "settings": "dose dependent, maximal effect", "experimental": "(§3) Highly purified peptides were used for functional in vitro validation. Various functional readout systems were available to determine the tumor suppressive impact of ITIH5 protein subfragments in vitro: A) Cell number assay: Numbers of living cells were quantified after four days of culturing using the CASY cell counter and analyzer (Roche Diagnostics, Mannheim, Germany). B) Colony formation assay: 1×10^3 cells were seeded into six-well plates. After 14 days of culturing grown colonies were fixed with 3.5% formaldehyde/80% methanol and stained with 0.1% crystal violet. C) In order to ensure specificity of observed effects of the ITIH5 subfragments a LDH Cytotoxicity Detection Kit (Roche) was performed according to the manufacturer's recommendations. D) Wound healing assay: a confluent monolayer was scratched with a pipette tip. Afterwards cell migration within the wounded area was analyzed by using a light microscope over three days."}, "[6]": {"system": "A549 lung cancer cells", "assay": "LDH Cytotoxicity Detection assay", "format": "cell-based, human", "settings": "after 72 h vs controls", "experimental": "as §3"}, "[7]": {"system": "MDA-MB231 breast cancer cells", "assay": "long-term colony formation assay", "format": "cell-based, human", "settings": "p<0.001", "experimental": "as §1"}, "[8]": {"assay": "stability in supernatant of treated cancer cells (western blot)", "format": "in vitro ADME", "settings": "1 μg/ml added to supernatant of MDA-MB231 cells; western blotting", "experimental": "FIG. 2 is a diagram showing the performance of the recombinant 1-681_ITIH5 in vitro. A) Persisting stability of 1-681_ITIH5 over 48 h in vitro. 1 μg/ml of 1-681_ITIH5 was added to the supernatant of MDA-MB231 breast cancer cells. To the given time points 1 ml of the supernatant was harvested and non-degraded 1-681_ITIH5 was isolated and analyzed by western blotting (as shown). B) LDH cytotoxicity assay.\nBefore applying 1-681_ITIH5 in vitro both the stability and the purity were tested by using a western blot analysis."}, "[9]": {"system": "MDA-MB231 endogenously ITIH5 positive cells", "assay": "colony formation assay in ITIH5-expressing single cell clones", "format": "cell-based, human", "settings": "MDA-MB231 clones stably expressing ITIH5", "experimental": "as §1, §2"}, "[10]": {"system": "BT20 breast cancer cell line", "assay": "colony formation assay", "format": "cell-based, human", "experimental": "as §1"}, "[11]": {"system": "T47D breast cancer cell line", "assay": "colony formation assay", "format": "cell-based, human", "experimental": "as §1"}, "[12]": {"system": "SK-MES1 lung cancer cells", "assay": "XTT proliferation assay", "format": "cell-based, human", "settings": "dose-dependent", "experimental": "as §1"}}, "data": [{"molecule": "#26: chemically synthesized peptide derived from the ITIH5 VIT-domain (SVKSTIISRYAFTTVSCRML; isolated peptide)", "values": [{"measurement": "cancer cell growth, single peptides", "setting": "[1]", "value": "significant impairment of cancer cell growth"}]}, {"molecule": "#32: chemically synthesized peptide derived from the ITIH5 VIT-domain (MLNRASEDQDIEFQMQIPAA; isolated peptide)", "values": [{"measurement": "cancer cell growth, single peptides", "setting": "[1]", "value": "significant impairment of cancer cell growth"}]}, {"molecule": "#98: chemically synthesized peptide derived from the ITIH5 vWA domain (GDIQVLNGYFVHYFAPKDLP; isolated peptide)", "values": [{"measurement": "cancer cell growth, single peptides", "setting": "[1]", "value": "significant impairment of cancer cell growth"}]}, {"molecule": "#102: chemically synthesized peptide derived from the ITIH5 vWA domain (YFAPKDLPPLPKNVVFVLDS; isolated peptide)", "values": [{"measurement": "cancer cell growth, single peptides", "setting": "[1]", "value": "significant impairment of cancer cell growth"}]}, {"molecule": "#108: chemically synthesized peptide derived from the ITIH5 vWA domain (DSSASMVGTKLRQTKDALFT; isolated peptide)", "values": [{"measurement": "cancer cell growth, single peptides", "setting": "[1]", "value": "significant impairment of cancer cell growth"}]}, {"molecule": "#111: chemically synthesized peptide derived from the ITIH5 vWA domain (KLRQTKDALFTILHDLRPQD; isolated peptide)", "values": [{"measurement": "cancer cell growth, single peptides", "setting": "[1]", "value": "significant impairment of cancer cell growth"}]}, {"molecule": "B1", "values": [{"measurement": "inhibition of tumor cell growth", "setting": "[2]", "value": "up to 30%"}]}, {"molecule": "B2", "values": [{"measurement": "inhibition of tumor cell growth", "setting": "[2]", "value": "up to 40%"}, {"measurement": "unspecific cytotoxicity (LDH)", "setting": "[3]", "value": "no unspecific cytotoxicity"}, {"measurement": "tumor cell migration / cell motility", "setting": "[4]", "value": "clearly suppresses cell motility"}, {"measurement": "inhibition of tumor cell growth", "setting": "[5]", "value": "up to 40%"}, {"measurement": "unspecific cytotoxicity (LDH)", "setting": "[6]", "value": "no unspecific cytotoxicity"}]}, {"molecule": "B3", "values": [{"measurement": "Growth inhibition", "setting": "[2]; 100 ng/ml medium, repeated experiments", "value": "up to 20%"}, {"measurement": "Growth inhibition", "setting": "[2]; 1 μg/ml medium, highly significant", "value": "up to 50%"}, {"measurement": "colony growth after 14 days in culture (densitometrical evaluation)", "setting": "[7]", "value": "significantly impairs colony growth"}, {"measurement": "stability in the supernatant of treated cancer cells", "setting": "[8]", "value": "≥ 48", "unit": "h"}, {"measurement": "unspecific cytotoxicity (LDH)", "setting": "[3]", "value": "no unspecific cytotoxicity"}, {"measurement": "growth inhibition in ITIH5-positive cells", "setting": "[9]", "value": "not able to mediate growth inhibition"}, {"measurement": "colony growth", "setting": "[10]", "value": "significantly reduced colony growth"}, {"measurement": "colony growth", "setting": "[11]", "value": "significantly reduced colony growth"}, {"measurement": "cell growth inhibition (XTT)", "setting": "[12]", "value": "strongly mediates cell growth inhibition"}, {"measurement": "tumor cell migration / cell motility", "setting": "[4]", "value": "impairs furthermore tumor cell migration"}]}]}
